Results on one molecule are retold here after patent US20240034757A1 (OXFORD UNIVERSITY INNOVATION, published 2024).

Broadly, the Kd is a measure of binding affinity in units of concentration. A low value points to tighter binding.

For one experiment, the target named is T1, CCL8_HUMAN (human, UniProt P80075 24-99).
T1 sequence (looked up): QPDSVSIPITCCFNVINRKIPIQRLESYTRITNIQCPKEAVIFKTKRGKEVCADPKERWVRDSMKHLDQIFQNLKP
The experiment can be described thus: BLI.

A further experiment concerns the target CCL11_HUMAN (human, UniProt P51671 24-97). The experiment can be described thus: BLI.
In a further experiment the target is CCL13_HUMAN (human, UniProt Q99616 24-98). The experiment can be described thus: BLI. For orientation: Biolayer interferometry detects binding as a change in optical thickness at a sensor tip.
The target of another experiment is T2, CCL14_HUMAN (human, UniProt Q16627 22-93).
T2 sequence: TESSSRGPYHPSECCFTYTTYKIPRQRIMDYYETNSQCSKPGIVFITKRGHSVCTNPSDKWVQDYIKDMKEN
The experiment can be described thus: BLI.

Another experiment concerns the target T3, CCL15_HUMAN (human, UniProt Q16663 22-113).
T3 sequence: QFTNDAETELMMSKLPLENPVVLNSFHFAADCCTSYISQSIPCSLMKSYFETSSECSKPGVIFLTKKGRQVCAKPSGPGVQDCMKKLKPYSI
Put plainly: BLI.

The target in the next experiment is T4, CCL17_HUMAN (human, UniProt Q92583 24-94).
T4 sequence: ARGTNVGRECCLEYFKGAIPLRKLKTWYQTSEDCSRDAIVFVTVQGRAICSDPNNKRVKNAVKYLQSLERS
Put plainly: BLI.

Another experiment concerns the target T5, CCL19_HUMAN (human, UniProt Q99731 22-98).
T5 sequence: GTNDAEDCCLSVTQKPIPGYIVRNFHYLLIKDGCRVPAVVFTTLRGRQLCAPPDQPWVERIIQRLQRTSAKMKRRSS
Put plainly: BLI.

In the next experiment the target is CCL20_HUMAN (human, UniProt P78556 27-96). The experiment can be described thus: BLI.
The target of the next experiment is T6, CCL22_HUMAN (human, UniProt O00626 25-93).
T6 sequence: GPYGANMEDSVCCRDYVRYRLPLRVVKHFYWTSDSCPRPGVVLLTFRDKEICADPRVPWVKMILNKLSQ
Put plainly: BLI.

In the next experiment the target is T7, CCL27_HUMAN (human, UniProt Q9Y4X3 25-112).
T7 sequence: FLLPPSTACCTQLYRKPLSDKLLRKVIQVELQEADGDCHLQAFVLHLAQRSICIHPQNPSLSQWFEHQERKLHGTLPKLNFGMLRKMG
The experiment can be described thus: BLI.

A further experiment concerns the target T8, CCL1_HUMAN (human, UniProt P22362 24-96).
T8 sequence: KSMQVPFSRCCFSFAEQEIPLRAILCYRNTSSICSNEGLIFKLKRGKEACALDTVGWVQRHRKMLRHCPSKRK
Put plainly: BLI.

The target of another experiment is T9, CCL3_HUMAN (human, UniProt P10147 24-92).
T9 sequence: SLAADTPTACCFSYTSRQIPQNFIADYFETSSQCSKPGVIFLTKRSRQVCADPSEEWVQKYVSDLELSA
Put plainly: BLI.

Another experiment deals with T10, CCL3L1_HUMAN (human, UniProt P16619 24-93).
T10 sequence: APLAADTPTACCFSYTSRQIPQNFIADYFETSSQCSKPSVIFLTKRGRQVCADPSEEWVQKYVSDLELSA
Put plainly: BLI.

A further experiment concerns the target T11, CCL4_HUMAN (human, UniProt P13236 24-92).
T11 sequence: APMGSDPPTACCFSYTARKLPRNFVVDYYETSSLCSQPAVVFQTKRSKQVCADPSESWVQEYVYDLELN
Put plainly: BLI.

Another experiment has as its target T12, CCL4L1_HUMAN (human, UniProt Q8NHW4 24-92).
T12 sequence: T11 sequence with S47G
Put plainly: BLI.

The target in the next experiment is T13, CCL28_HUMAN (human, UniProt Q9NRJ3 23-127).
T13 sequence: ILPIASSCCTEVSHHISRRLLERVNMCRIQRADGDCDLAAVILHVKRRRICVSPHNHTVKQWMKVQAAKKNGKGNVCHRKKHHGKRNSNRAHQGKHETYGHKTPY
Put plainly: BLI.

A further experiment has as its target T14, CXCL1_HUMAN (human, UniProt P09341 35-107).
T14 sequence: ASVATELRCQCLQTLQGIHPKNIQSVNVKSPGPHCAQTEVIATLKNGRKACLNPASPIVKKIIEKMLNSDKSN
The experiment can be described thus: BLI [Cont.) C].

Another experiment addresses T15, CXCL3_HUMAN (human, UniProt P19876 35-107).
T15 sequence: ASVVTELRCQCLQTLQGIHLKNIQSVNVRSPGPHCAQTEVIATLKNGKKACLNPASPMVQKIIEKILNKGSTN
Put plainly: BLI [Cont.) C].

Another experiment concerns the target CXCL12_HUMAN (human, UniProt P48061 22-89). Put plainly: BLI [Cont.) C].
A further experiment has as its target T16, CXCL2_HUMAN (human, UniProt P19875 35-107).
T16 sequence: T14 sequence with S2P, V3L, P20L, N27K, R48Q, I58M, N68K, S69N, D70G
Put plainly: BLI [Cont.) C].

A further experiment concerns the target T17, CXCL5_HUMAN (human, UniProt P42830 41-114).
T17 sequence: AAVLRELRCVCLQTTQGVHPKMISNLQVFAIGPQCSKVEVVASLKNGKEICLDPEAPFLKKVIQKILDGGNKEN
The experiment can be described thus: BLI [Cont.) C].

Another experiment deals with T18, CXCL13_HUMAN (human, UniProt O43927 23-109).
T18 sequence: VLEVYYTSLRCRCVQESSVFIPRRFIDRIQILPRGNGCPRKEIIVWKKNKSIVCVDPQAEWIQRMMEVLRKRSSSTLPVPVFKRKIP
The experiment can be described thus: BLI [Cont.) C].

Numbering of substitutions follows the chain as printed. In names and notes the source's numbering stands.

Sequence of CXCL12_HUMAN (P48061 22-89 limits assumed): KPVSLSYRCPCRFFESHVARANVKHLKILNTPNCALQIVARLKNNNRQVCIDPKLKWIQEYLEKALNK
Sequence of CCL13_HUMAN (Q99616 24-98 limits assumed): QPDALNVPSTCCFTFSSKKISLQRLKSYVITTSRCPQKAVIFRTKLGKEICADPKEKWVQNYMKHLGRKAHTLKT
Sequence of CCL11_HUMAN (P51671 24-97 limits assumed): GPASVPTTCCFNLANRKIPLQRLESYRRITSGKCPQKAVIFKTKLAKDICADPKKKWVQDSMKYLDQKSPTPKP
Sequence of CCL20_HUMAN (P78556 27-96 limits assumed): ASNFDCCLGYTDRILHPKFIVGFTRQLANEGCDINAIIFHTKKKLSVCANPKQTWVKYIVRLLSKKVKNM

B1: P1243:G4S:P1156 (designed binder)
chain: RNHTEDNSTEYYDYEEARCACPARHLNNTNGTVLKLLGCHYFCNGTLCTAPDGYPCYNLTAQQVRTLTTYPNTSCAVGVCMKGTCVKNGTMEQCFKTPGGGGSADDDNELFTVQYCGMNCTKDEGGTWTGCTGKKEGCKCYHESGKNYGLCLSTEYTDFSQYGNPSDSEIEAAKPKRSDTLSH
For B1, the Kd was 381 nM with CCL8_HUMAN; 19.7 nM with CCL11_HUMAN; 1.33 nM with CCL13_HUMAN; 1.99 nM with CCL14_HUMAN; 8.71 nM in the experiment with CCL15_HUMAN; 3.51 nM with CCL17_HUMAN. Further, the Kd was determined as 2.92 nM in the experiment with CCL19_HUMAN; 24.4 nM with CCL27_HUMAN; 16.4 nM with CCL3_HUMAN; 4.06 nM with CCL3L1_HUMAN; 19.4 nM in the experiment with CCL4_HUMAN; 17.4 nM in the experiment with CXCL1_HUMAN. The binding result with CCL20_HUMAN, with CCL22_HUMAN, in the experiment with CCL1_HUMAN, in the experiment with CCL4L1_HUMAN, with CCL28_HUMAN and with CXCL3_HUMAN was “no binding (tested: 300 nM)” each time. Further, the binding result in the experiment with CXCL12_HUMAN, in the experiment with CXCL2_HUMAN, in the experiment with CXCL5_HUMAN and with CXCL13_HUMAN was “no binding (tested: 300 nM)” throughout.
